Data set [1] concerns the target Flag-tagged CTC1 ΔB (human) (UniProt Q2NKJ3). Put plainly: co-IP.
A further data set deals with CTC1 V259M;STN1;TEN1 (human?;human?;human?, UniProt Q2NKJ3;Q9H668;Q86WV5 1-1217;1-368;1-123, V259M||). Put plainly: EMSA.
For the next data set, the target named is CTC1 A227V;STN1;TEN1 (human?;human?;human?, UniProt Q2NKJ3;Q9H668;Q86WV5 1-1217;1-368;1-123, A227V||). Kind of data set: EMSA.
Sequence of CTC1 A227V;STN1;TEN1 (Q2NKJ3 whole entry A227V, chain 1 of 3): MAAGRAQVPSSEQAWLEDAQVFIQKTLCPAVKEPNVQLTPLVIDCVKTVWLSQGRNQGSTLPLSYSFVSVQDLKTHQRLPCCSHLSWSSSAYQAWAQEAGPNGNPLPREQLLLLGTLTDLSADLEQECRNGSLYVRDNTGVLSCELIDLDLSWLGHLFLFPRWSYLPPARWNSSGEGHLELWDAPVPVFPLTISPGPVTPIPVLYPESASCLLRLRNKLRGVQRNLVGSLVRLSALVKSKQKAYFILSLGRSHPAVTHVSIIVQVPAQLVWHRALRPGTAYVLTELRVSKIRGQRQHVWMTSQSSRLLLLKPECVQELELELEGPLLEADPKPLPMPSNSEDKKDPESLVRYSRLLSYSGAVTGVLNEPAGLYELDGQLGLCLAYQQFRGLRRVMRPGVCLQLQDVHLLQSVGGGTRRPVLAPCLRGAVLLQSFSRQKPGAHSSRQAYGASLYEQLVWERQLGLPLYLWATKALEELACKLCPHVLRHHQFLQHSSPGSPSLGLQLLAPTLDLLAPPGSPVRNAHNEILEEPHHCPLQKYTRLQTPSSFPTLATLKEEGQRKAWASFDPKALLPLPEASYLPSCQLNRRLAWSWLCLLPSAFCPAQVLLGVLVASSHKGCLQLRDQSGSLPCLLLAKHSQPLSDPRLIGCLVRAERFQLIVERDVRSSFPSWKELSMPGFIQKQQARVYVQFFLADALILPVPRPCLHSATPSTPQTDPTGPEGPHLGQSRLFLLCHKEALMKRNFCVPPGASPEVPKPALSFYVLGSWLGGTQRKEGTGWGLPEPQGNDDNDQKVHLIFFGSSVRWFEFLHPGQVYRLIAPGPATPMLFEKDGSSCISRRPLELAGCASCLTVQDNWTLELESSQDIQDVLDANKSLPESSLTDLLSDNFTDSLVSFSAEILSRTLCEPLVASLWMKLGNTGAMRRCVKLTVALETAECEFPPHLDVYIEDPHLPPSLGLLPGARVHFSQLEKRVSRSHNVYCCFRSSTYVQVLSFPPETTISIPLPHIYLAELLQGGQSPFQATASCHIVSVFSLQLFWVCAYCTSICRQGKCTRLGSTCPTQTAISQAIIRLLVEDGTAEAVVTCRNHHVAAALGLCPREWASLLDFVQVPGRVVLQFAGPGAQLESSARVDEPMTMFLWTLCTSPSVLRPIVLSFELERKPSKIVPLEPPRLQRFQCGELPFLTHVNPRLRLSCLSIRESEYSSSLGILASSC
Sequence of CTC1 A227V;STN1;TEN1 (Q9H668 whole entry, chain 2 of 3): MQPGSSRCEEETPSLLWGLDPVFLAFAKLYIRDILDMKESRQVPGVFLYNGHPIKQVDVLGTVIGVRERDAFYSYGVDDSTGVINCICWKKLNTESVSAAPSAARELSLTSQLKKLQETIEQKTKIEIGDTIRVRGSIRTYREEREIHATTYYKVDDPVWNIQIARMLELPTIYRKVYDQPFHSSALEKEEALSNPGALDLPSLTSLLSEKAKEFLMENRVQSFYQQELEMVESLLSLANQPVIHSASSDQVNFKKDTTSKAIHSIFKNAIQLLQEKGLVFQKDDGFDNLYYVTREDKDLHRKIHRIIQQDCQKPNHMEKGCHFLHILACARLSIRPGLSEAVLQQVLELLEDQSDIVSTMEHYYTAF
Sequence of CTC1 A227V;STN1;TEN1 (Q86WV5 whole entry, chain 3 of 3): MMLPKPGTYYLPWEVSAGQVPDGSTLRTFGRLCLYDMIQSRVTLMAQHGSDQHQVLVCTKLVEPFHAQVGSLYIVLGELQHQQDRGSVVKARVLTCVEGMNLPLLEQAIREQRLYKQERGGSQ

Sequence of Myc-tagged TPP1 (Q96AP0 whole entry): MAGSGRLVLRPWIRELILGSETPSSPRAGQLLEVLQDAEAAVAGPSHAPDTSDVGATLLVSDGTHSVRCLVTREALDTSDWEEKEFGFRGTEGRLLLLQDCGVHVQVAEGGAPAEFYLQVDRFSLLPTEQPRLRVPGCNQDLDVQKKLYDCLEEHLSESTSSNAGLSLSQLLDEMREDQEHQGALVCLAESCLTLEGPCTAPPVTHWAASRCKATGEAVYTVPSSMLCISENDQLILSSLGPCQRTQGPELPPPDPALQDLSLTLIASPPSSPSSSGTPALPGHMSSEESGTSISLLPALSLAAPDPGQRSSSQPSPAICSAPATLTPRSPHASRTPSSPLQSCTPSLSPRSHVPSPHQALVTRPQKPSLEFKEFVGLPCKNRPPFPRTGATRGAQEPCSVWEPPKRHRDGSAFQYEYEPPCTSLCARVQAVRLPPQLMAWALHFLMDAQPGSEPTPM
Sequence of CTC1 V259M;STN1;TEN1 (Q2NKJ3 whole entry V259M, chain 1 of 3): as the sequence (Q2NKJ3 whole entry A227V, chain 1 of 3) above, with V227A, V259M counted along it
Sequence of CTC1 V259M;STN1;TEN1 (Q9H668 whole entry, chain 2 of 3): as the sequence (Q9H668 whole entry, chain 2 of 3) above
Sequence of CTC1 V259M;STN1;TEN1 (Q86WV5 whole entry, chain 3 of 3): as the sequence (Q86WV5 whole entry, chain 3 of 3) above
Sequence of Flag-tagged CTC1 ΔB (human) (Q2NKJ3 whole entry, stated change not applied): as the sequence (Q2NKJ3 whole entry A227V, chain 1 of 3) above, with V227A counted along it

In the case of “Myc-tagged TPP1 (from UniProt Q96AP0 1-458) (natural protein)”, in data set [1], the percent decrease of TPP1 co-immunoprecipitated, against WT CTC1 is 44%.

As to GGTTAGGGTTAGGGTTAG (ssDNA) [Tel-18 CY7], the binding result with CTC1 V259M;STN1;TEN1 and with CTC1 A227V;STN1;TEN1 was “binds” each time.

Source of the values: article PMC10250220.
